In experiment [1] the target is T1, recombinant human NRMT (N-terminal RCC1 methyltransferase) (human, UniProt Q9BV86 1-223).
T1 sequence (looked up): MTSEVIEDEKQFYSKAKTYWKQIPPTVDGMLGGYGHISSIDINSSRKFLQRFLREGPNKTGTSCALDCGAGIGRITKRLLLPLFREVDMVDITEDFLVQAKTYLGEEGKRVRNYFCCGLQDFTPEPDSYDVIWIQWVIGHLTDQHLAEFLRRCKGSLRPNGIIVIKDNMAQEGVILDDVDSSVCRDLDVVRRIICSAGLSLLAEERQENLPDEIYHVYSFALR
Put plainly: ITC.

The target in experiment [2] is T1, recombinant human NRMT (N-terminal RCC1 …). Description: ITC. The source holds these as a separate data set. A general note: Isothermal titration calorimetry measures the heat released or taken up as one component is titrated into another.

Where no end group is shown, it is not given here. Me3 = trimethylated alpha-amino group on the N-terminal residue; Me2 = dimethylated alpha-amino group on the N-terminal residue

For Me3-SPKRIAKRRS [me3SPKRIAKRRS, 10-residue me3-SPK-RCC1 N-terminal product peptide], the Ka in experiment [1] turned out to be 480000 M⁻¹. In experiment [2], the Kd turned out to be 2000 nM, the dH is -4330 cal/mol and the “stoichiometry N” value is 1.2.

Consider SPKRIAKRRS [SPKRIAKRRS, wild-type 10-residue SPK-RCC1 N-terminal peptide], for which the Ka in experiment [1] stood at 100000 M⁻¹. Also, in experiment [2], the Kd came out at 10000 nM, the dH is -9940 ± 207 cal/mol and the “stoichiometry N” value was 0.8.

Consider Me2-PPKRIAKRRS [me2PPKRIAKRRS, 10-residue me2-PPK-RCC1 N-terminal product peptide], for which, in experiment [1], the Ka was found to be 770000 M⁻¹. Besides, in experiment [2], the Kd stood at 1300 nM, the dH is -5770 ± 93 cal/mol and the “stoichiometry N” value was determined as 0.9.

For the molecule PPKRIAKRRS [PPKRIAKRRS, 10-residue PPK-RCC1 N-terminal peptide], in experiment [2], the “Kd of the first phase of the bi-phasic curve” value came to 1.5 nM, the “Kd of the second phase of the bi-phasic curve” value was 140 nM, the “dH of the first phase of the bi-phasic curve” value is -31000 ± 221 cal/mol and the “dH of the second phase of the bi-phasic curve” value is -9430 ± 192 cal/mol.

A word on the Kd: it is the constant that tells how readily two partners part at equilibrium. As usually defined, the stoichiometry N is a count of units in the complex or per binding partner.

Source of the values: paper PMC3447998 (Biochemistry, 2012).
